Data reported in US20050203281A1, “Production of recombinant fragments of muscle acetylcholine receptor and their use for ex vivo immunoadsorption of anti-ch receptor antibodies from myasthenic patients” (priority 2002, published 2005).
“Also recorded” adds a separate entry of the source.

Legend:
alpha1-210 fragment = alpha1-210 fragment (Homo sapiens, UniProt P02708); conditions: read-out: concentration of unlabeled toxin giving 50% inhibition of 125I-alpha-BTX binding
[1] = tested on: anti-AChR antibodies from MG sera; experiment: Immunoadsorption of anti-AChR antibodies from MG sera by CNBr-Sepharose-immobilized subunit domains, RIA with human AChR from TE671 cells; assay type: binding; conditions: for immunoadsorption of anti-AChR antibodies (in words): immobilized on Sepharose-CNBr
Description: FIG. 6 illustrates the immunoadsorption of anti-AChR antibodies from MG sera using immobilized alpha1-210 (black bars), gamma1-218 (grey bars) and epsilon1-219 (blank bars). Each subunit has been expressed in the yeast Pichia pastoris and the purified proteins have been covalently immobilized on CNBr-Sepharose beads. 64 MG positive sera were assayed for binding to human AChR after incubation with alpha1-210 immobilized on CNBr-Sepharose (together with BSA) or with just BSA immobilized on the same insoluble matrix. 2.5 ul of each MG patient serum were incubated with 0.2 ug immobilized alpha1-210 mixed with BSA or the same amount of BSA at […] for 2-3h (in a total volume of 0.16 ml) followed by centrifugation. Samples of the supernatants, each containing an amount corresponding to 0.9 ul of the treated MG sera were subsequently used in a typical RIA MG diagnostic test (Lindstrom et al., Meth. Enzymol. 74, 432460, 1981) with human AChR from TE671 cells. The percentage of immunoadsorption was estimated as described in the Example 3. Samples were processed in duplicates. Results shown (black bars) are an average of two experiments. Sera are sorted in decreasing percentage of immunoadsorption to immobilized alpha1-210.
FIG. 7 illustrates the immunoadsorption of anti-AChR antibodies from MG sera against immobilized alpha1-210 (black bars), gamma1-218 (gray bars) and a mix of both immobilized alpha1-210 and gamma1-218 (hatched bars). 9 MG sera were assayed for binding to human AChR after incubation of 20 fmoles anti-AChR MG antibodies with alpha1-210 (1 ug), or gamma1-218 (1 ug) or alpha1-210/gamma1-218 mix (containing 1 ug of each subunit) immobilized on CNBr-Sepharose. Incubation with just BSA immobilized to the same insoluble matrix served as a control to calculate the percent immunoadsorption against each of the subunits and the mix of both. After incubation with the Sepharose-immobilized proteins, sera were screened in a typical RIA experiment using TE671 AChR. The percentage of immunoadsorption was estimated as described in the Example 3. Samples were processed in duplicates. Results shown are an average of two experiments.
Immunoadsorption of MG autoantibodies by immobilized alpha1-210. 0.1 mg alpha1-210 mixed with 1.4 mg BSA was covalently bound to 0.5 gr CNBr-Sepharose according to manufacturer's protocol (Amersham). BSA was simply added to increase the protein/Sepharose ratio because the ratio of recombinant protein to Sepharose beads used would otherwise be too small; BSA is not necessary for larger scale experiments. In parallel, 1.5 mg BSA was bound to the same amount of CNBr-Sepharose under the same conditions as control. 2.5 ul MG patient sera were incubated with 0.2 ug immobilized alpha1-210 mixed with BSA, or the same amount of immobilized BSA alone, at 4° C. for 2-3 h (in a total volume of 0.16 ml) followed by centrifugation for bead precipitation. Samples of the supernatants, each containing an amount corresponding to 0.9 ul of these treated MG sera were subsequently used in a typical RIA MG diagnostic test (Lindstrom et al., Meth. Enzymol. 74, 432460, 1981) with human AChR from TE671 cells. The percentage of immunoadsorption was estimated as the ratio between the reduction in immunoprecipitated radiolabeled human AChR after incubation with alpha1-210 and the immunoprecipitated radiolabeled human AChR without incubation with alpha1-210 (incubation with plain immobilized BSA). 64 MG positive sera were assayed for binding to human AChR after incubation with immobilized alpha1-210 or BSA. […] We also tested immunoadsorption of the same set of MG sera by incubating 0.2 ug immobilized alpha1-210 with a fixed amount of anti-AChR antibodies (20 fmoles in variable volumes of MG sera depending on their titer) rather than a fixed serum volume.
Immunoadsorption of MG autoantibodies by immobilized gamma1-218 or epsilon1-219 domains. […]

[2] = tested on: anti-AChR antibodies from MG sera; experiment: Immunoadsorption of anti-AChR antibodies from MG sera by immobilized epsilon1-219, RIA with human AChR from TE671-epsilon cells; assay type: binding
Description: A subset of […] sera was also tested with gamma1-218 immobilized on CNBr-Sepharose (gray bars) and a subset of 22 sera was screened against epsilon1-219 immobilized on CNBr-Sepharose (blank bars) as described in the Example 3. Sera which have not been tested for immunoadsorption with epsilon1-219 are indicated in the X axis with open circles and sera which have not been tested on both gamma1-218 and epsilon1-219 are indicated with filled circles.
Immunoadsorption of MG autoantibodies by immobilized gamma1-218 or epsilon1-219 domains. 0.1 mg[…] of purified gamma1-218 or epsilon 1-219 mixed with 1.4 mg BSA was covalently immobilized on 1 gr of CNBr-Sepharose according to manufacturer's protocol. In parallel, an identical column was prepared with 1.5 mg BSA, to serve as control. Variable amounts of MG patient sera containing 20 fmoles of anti-AChR antibodies were incubated with 1 ug immobilized gamma1-218 mixed with BSA or the same amount of BSA at 4° C. for 2-3 h followed by centrifugation Samples of the supernatants, each containing an amount corresponding to 6 fmoles of preadsorbed anti-AChR antibody, were subsequently tested in a typical RIA MG diagnostic test as above. Sera which had been incubated with gamma1-218 were screened with the human AChR from TE671 cells (which contains alpha, beta, gamma and delta subunits) whereas sera immunoadsorbed with epsilon1-219 were screened with human AChR from TE671-epsilon cells(which contains alpha, beta, gamma and epsilon subunits) (Beeson et al., Neurology, 47,1552-1555, 1996). The percentage of immunoadsorption was estimated as above. Several MG sera from the group of the sera tested with immobilized alpha1-210 were assayed for binding to human AChR after incubation with immobilized gamma1-218 (43 sera) or epsilon1-219 (22 sera) or BSA only. Incubation with gamma1-218 led to a 29-56% reduction for 16% of the tested sera (7 sera out of 43), whereas it caused a 15%-30% reduction in another 28% of the tested sera (12 sera) (FIG. 6, gray bars). Other tested MG sera reached up to 68% immunoadsorption by gamma1-218 (not shown). […]

[3] = tested on: anti-AChR antibodies from MG sera; experiment: Immunoadsorption of anti-AChR antibodies from MG sera by CNBr-Sepharose-immobilized subunit domains, RIA with human AChR from TE671 cells; assay type: binding; conditions: expressed in E. coli, refolded, similarly immobilized, same MG sera

Molecule: alpha-bungarotoxin [alpha-BTX]
- IC50 (alpha1-210 fragment): 5 nM

B1: beta1-222: extracellular domain of human muscle AChR beta subunit, Pichia pastoris, FLAG and six-histidine tag (protein)
chain: DYKDDDDKMTPGALLMLLGALGAPLAPGVRGSEAEGRLREKLFSGYDSSVRPAREVGDRVRVSVGLILAQLISLNEKDEEMSTKVYLDLEWTDYRLSWDPAEHDGIDSLRITAESVWLPDVVLLNNNDGNFDVALDISVVVSSDGSVRWQPPGIYRSSCSIQVTYFPFDWQNCTMVFSSYSYDSSEVSLQTGLGPDGQGHQEIHIHEGTFIENGQWEIIHKPSRLIQPPG
modifications: glycosylated
- immunoadsorption of anti-AChR antibodies (in words) [1]: lower but very significant percentages

B2: epsilon1-219 (protein)
chain: DYKDDDDKKNEELRLYHHLFNNYDPGSRPVREPEDTVTISLKVTLTNLISLNEKEETLTTSVWIGIDWQDYRLNYSKDDFGGIETLRVPSELVWLPEIVLENNIDGQFGVAYDANVLVYEGGSVTWLPPAIYRSVCAVEVTYFPFDWQNCSLIFRSQTYNAEEVEFTFAVDNDGKTINKIDIDTEAYTENGEWAIDFCPGVIRRHHGGATDGPGETDVIYSLIIRRK
modifications: glycosylated
- reduction of anti-AChR antibodies, best-adsorbed sera ([2]; 27% of screened sera (6/22)): 30-54%
- reduction of anti-AChR antibodies, intermediate sera ([2]; another 45% of the sera (10/22)): 15%-30%
- immunoadsorption of anti-AChR antibodies (in words) ([2]; immobilized on Sepharose-CNBr): lower but very significant percentages; also recorded: considerable amounts

B3: alpha1-208: extracellular alpha domain of human AChR expressed in E. coli and refolded according to Tsouloufis et al. (protein)
chain: SEHETRLVAKLFKDYSSVVRPVEDHRQVVEVTVGLQLIQLINVDEVNQIVTTNVRLKQQWVDYNLKWNPDDYGGVKKIHIPSEKIWRPDLVLYNNADGDFAIVKFTKVLLQYTGHITWTPPAIFKSYCEIIVTHFPFDEQNCSMKLGTWTYDGSVVAINPESDQPDLSNFMESGEWVIKESRGWKHSV
- immunoadsorbing efficiency compared with yeast-expressed alpha domain [3]: significant but much lower
- immunoadsorbing efficiency compared with yeast-expressed alpha domain ([3]; listed as alpha-subunit fragment expressed in E. coli): much lower level

B4: gamma1-218: extracellular domain of human muscle AChR gamma subunit, Pichia pastoris, FLAG and six-histidine tag (protein)
chain: DYKDDDDKRNQEERLLADLMQNYDPNLRPAERDSDVVNVSLKLTLTNLISLNEREEALTTNVWIEMQWCDYRLRWDPRDYEGLWVLRVPSTMVWRPDIVLENNVDGVFEVALYCNVLVSPDGCIYWLPPAIFRSACSISVTYFPFDWQNCSLIFQSQTYSTNEIDLQLSQEDGQTIEWIFIDPEAFTENGEWAIQHRPAKMLLDPAAPAQEAGHQKVVFYLLIQRK
modifications: glycosylated
- reduction of anti-AChR antibodies, best-adsorbed sera ([1]; 16% of tested sera (7 of 43), 1 ug immobilized protein, 20 fmoles antibody): 29-56%
- reduction of anti-AChR antibodies, intermediate sera ([1]; another 28% of tested sera (12 sera)): 15%-30%
- immunoadsorption of anti-AChR antibodies (in words) [1]: lower but very significant percentages; also recorded: large fractions; also recorded: considerable amounts
- maximal immunoadsorption in other tested MG sera ([1]; other tested MG sera (not shown)): up to 68%
- immunoadsorption of serum no. 3 ([1]; serum no. 3, 1 ug of each immobilized subunit, 20 fmoles antibody): 22%
